Data from the nanobody polyreactivity screen of Harvey et al. (2022).

Assay: yeast display, Sf9 membrane polyspecificity reagent, FACS + sequencing; frameworks hold sequencing errors
Summary of the method: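 In a synthetic yeast display library (Saccharomyces cerevisiae BJ5465), nanobody expression was induced with galactose for 36–48 hours. FACS gates were set low and high (top ~1%) using anti-HA fluorescence for expression and streptavidin fluorescence for binding of the Sf9 membrane reagent. Each polyreactivity label is drawn from the gate of origin.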

Question: For “QVQLVESGGGLVQPGGSLRLSCAASGLTFPWYAMGWYRQAPGQERELVAAITNSDGNTFADSVKGRFTISRDNAKNSVYLQMNSLKAEDTAVYSCATDTRSLAYYYWGQGTQVTVSS”, which “polyreactivity (PSR sort gate)” value is on record?
Answer: Its value is “low polyreactivity”.

Question: For “QVQLVESGGGLVQPGGSLRLSCAASGNTFANYAMGWYRQAPGKERELVAAITSNGGSTYYADSVKGRFTISRDNAKNTVFLQMNSLKPEDTAVYYCAADAAYYSGYDYWGQGTQVTVSS”, which “polyreactivity (PSR sort gate)” value is on record?
Answer: The value was “low polyreactivity”.

Question: For “QVQLVESGGGLVQPGGSLRLSCAASGRISSYYAMGWYRQAPGKERELVAAISNAGSTKYADSVKGRFTISRDNAKNTVYLQMNRLKPEDTAVYYCNARSYRWSWVLRYDYWGKGTQVTVSS”, which “polyreactivity (PSR sort gate)” value is on record?
Answer: Its value is “high polyreactivity”.

Question: With “QVQLVESGGGLVQPGGSLRLSCAASGRTFYEYAMGWYRPAPGKERELVAGITSGGSTNYADSVKGRFTISRDNAKNTVYLQMNSLKPEDTAVYYCAASYWGYEYDYWGQGTQVTVSS” as the sequence, how does the “polyreactivity (PSR sort gate)” value read?
Answer: The value was “low polyreactivity”.

Question: For “QVQLVESGGGLVQPGGSLRLSCAASGRTIERNTMGWYRQAPGKERELFAAISYDGGSTYYADSVKGRFTISRDNAKNTVYLQMNSLKPEDTAVYYCNAGGSEIYRSPFDYWGQGTEVTVSS”, which “polyreactivity (PSR sort gate)” value is on record?
Answer: The value was “low polyreactivity”.

Question: With “QVQLVESGGGLVQPGGSLRLSCAASGRTYRWYAMGWYRQAPGKERELVASITSGVSTYYADSVTGRCTISRDNAKNTVNLQMNSLKPEDTAVYYCAAGYRFTTYLVYNYWGQGTHVTVSS” as the sequence, how does the “polyreactivity (PSR sort gate)” value read?
Answer: Its value is “high polyreactivity”.

Question: With “QVQLVESGGGLVQPGGSLRLSCAASGSIFRVYAMGWYRQAPGKERELVAAISRGGNTNYADSVKGRFTISRDNAKNTVYLQKNSLKPEDTAVYYCNARYYSWDWWIGYDYWGQGTLVTVSS” as the sequence, how does the “polyreactivity (PSR sort gate)” value read?
Answer: The value was “high polyreactivity”.

Question: For “QVQLVESGGGLVQPGGSLRLSCAASGSIFRYYAMGWYRQAPGKERELVATIRSGGSTTYADSVKGRFTISRDNAKNTVYLQMNSLKPEDTAVYYCAATYGWRFTTFPSGYASDYYWGQGTQVTVSS”, which “polyreactivity (PSR sort gate)” value is on record?
Answer: Its value is “high polyreactivity”.

Question: With “QVQLVESGGGLVQPGGSLRLSCAASGSTFGGYAKGWYRQAPGQERELVAAITWDTGTTYYADSVKGRFTISRDNAKNTVYLQMNSLKPEDTAVYYCAAVGSTTTGVRRRGYWGQGTQVNVSS” as the sequence, how does the “polyreactivity (PSR sort gate)” value read?
Answer: The value was “high polyreactivity”.

Question: For “QVQLVESGGGLVQPGGSLRLSCAASGSTFSWNAMGWYRQAPGKERELVASITWGGGSTYYADSVKGRFTISRDTAKNTVYLQMNSLKPEDTAVYYSAAKYGTSKYSRYYYWGQGTQVTVSS”, which “polyreactivity (PSR sort gate)” value is on record?
Answer: The value was “high polyreactivity”.

Question: Which “polyreactivity (PSR sort gate)” value does the source give for “QVQLVESGGGLVQSGCSLRLSCAASGSTFYRYAMGWYRQAPGKERELVAAITSAGSTNYADSVKGRFTISRDNAKNTVYLLMNSLKPEDTAVYYCAADHGRPYFSYDYWGQGTQVTVSS” here?
Answer: Its value is “low polyreactivity”.

Question: Which “polyreactivity (PSR sort gate)” value does the source give for “QVQLVESGGGLVQSGGILRLSCAASGGTFYANAMGWYRQAPGKERELVAAITSGGSTNYADSVKRRFTISRDNAKNTVSLQMNSLKPEDTAVYYCNASAQRRYWHSYFRRYDYWGQGTQVTVSS” here?
Answer: Its value is “low polyreactivity”.

Question: Which “polyreactivity (PSR sort gate)” value does the source give for “QVQLVESGGGLVQSGGSLLLSCAASGFTFGRYAMAWYRQAPGKERELVAAIRRSGGSTYYADSVKGRFTISRDNAKNTVYLQMNSRKPEDTAVFYCAAVRWWTYGNYDYWGQGTQVTVSS” here?
Answer: Its value is “high polyreactivity”.

Question: For “QVQLVESGGGLVQSGGSLRLICAASGRTSLNYAMGWYRQAPGKEMELVAAITRGGGGTYYADSVKGRFTISRDNAKNTVYFQMNSLKPEDTAVYYCAREHKRGGYGYWGQGTQVTVSS”, which “polyreactivity (PSR sort gate)” value is on record?
Answer: The value was “high polyreactivity”.

Question: Which “polyreactivity (PSR sort gate)” value does the source give for “QVQLVESGGGLVQSGGSLRLSCAASGFIFPVYTLGWYRHAPGKERELDAAITQIGGSTHYADSVKGRFTISRDNAKNTVYLQMNSLKPEDTAVFYCKAVPSYGTEYDYWGQGTQVTVSS” here?
Answer: The value was “low polyreactivity”.

Question: Which “polyreactivity (PSR sort gate)” value does the source give for “QVQLVESGGGLVQSGGSLRLSCAASGLIFTSYAMGWYRQAPGKERELVAAISYSGGTTFYADYVKGRFTISRDNAKNTVYLQMNSLKPEDTAVYYCAADSLSTTHDTLGYDRDDYWGQGTQVTVSS” here?
Answer: Its value is “low polyreactivity”.
